Data published in patent US20260109758A1 (BIOSION, published 2026).

Target: T1, recombinant human TSLP-his (human, UniProt Q969D9 29-159, biotin-labeled in the ELISAs)
T1 construct: In-house made; not shown: His tag at the C-terminus
Assay: capture ELISA: antibody captured on anti-human IgG Fc F(ab')2, biotin human TSLP-his, SA-HRP
Method: Briefly, 96-well micro plates were coated with 100 μL 2 μg/mL AffiniPure F(ab′)₂ Fragment Goat Anti-Human IgG, Fey fragment specific (Jackson Immuno Research, Cat #109-006-008) in PBS and incubated overnight at 4° C. Plates were washed 4 times with wash buffer (PBS+0.05% Tween-20, PBST) and then blocked with 200 μL/well blocking buffer (5% w/v non-fatty milk in PBST) for 2 hours at 37° C. […] After the final wash, the plates were incubated with 100 μL/well TMB (Innoreagents). The reaction was stopped 15 minutes later at room temperature with 50 μL/well 1M H₂SO₄, and the absorbance of each well was read on a microplate reader using dual wavelength mode with 450 nm for TMB and 630 nm as the reference wavelength. The OD (450-630) values were plotted against antibody concentration. Data was analyzed using Graphpad Prism and EC₅₀ values were reported.

| Binder | EC50 [nM] |
| --- | --- |
| BSI-502-007 (bispecific antibody, human IgG1, kappa, huC2C1A1A1-V15 IgG with an anti-TSLP scFv (VH-VL) at the N-terminus of the heavy chain; AQQ and YTE already stand in the entry) heavy: QVQLVQSGAEVKKPGASVKVSCKASGYTFTTYWMHWVRQAPGQGLEWMGVIDPSDSDTTYNQKFKGRVTMTRDTSTSTVYMELSSLRSEDTAVYYCTRSLDGYYDYWGQGTLVTVSSGGGGSGGGGSGGGGSGGGGSDIQMTQSPSSLSASVGDRVTITCRPTENIYSYLAWYQQKPGKAPKLLIYFARTLAEGVPSRFSGSGSGTDFTLTISSLQPEDFATYYCQHHYGTPWTFGGGTKVEIKGGGGSGGGGSEVQLVESGGGLVQPGGSLRLSCAASGFTFSTYGMSWVRQAPGKGLVWVATINSNGGSTSYPDSVKGRFTISRDNAKNTLYLQMNSLRAEDTAVYYCARFFRFRNAMDYWGQGTLVTVSSASTKGPSVFPLAPSSKSTSGGTAALGCLVKDYFPEPVTVSWNSGALTSGVHTFPAVLQSSGLYSLSSVVTVPSSSLGTQTYICNVNHKPSNTKVDKKVEPKSCDKTHTCPPCPAPEAQGGPSVFLFPPKPKDTLYITREPEVTCVVVDVSHEDPEVKFNWYVDGVEVHNAKTKPREEQYNSTYRVVSVLTVLHQDWLNGKEYKCQVSNKALPAPIEKTISKAKGQPREPQVYTLPPSRDELTKNQVSLTCLVKGFYPSDIAVEWESNGQPENNYKTTPPVLDSDGSFFLYSKLTVDKSRWQQGNVFSCSVMHEALHNHYTQKSLSLSPG light: DIQMTQSPSSLSASVGDRVTITCRTSENIYSYLAWYQQKPGKAPKFLVYNAKTLAEGVPSRFSGSGSGTDFTLTISSLQPEDFATYYCQHYYGPPTWTFGQGTKVEIKRTVAAPSVFIFPPSDEQLKSGTASVVCLLNNFYPREAKVQWKVDNALQSGNSQESVTEQDSKDSTYSLSSTLTLSKADYEKHKVYACEVTHQGLSSPVTKSFNRGEC | 0.0844 |
| BSI-502-008 (bispecific antibody, human IgG1, kappa, huC2C1A1A1-V15 IgG with an anti-TSLP scFv (VL-VH) at the N-terminus of the heavy chain; AQQ and YTE already stand in the entry) heavy: DIQMTQSPSSLSASVGDRVTITCRPTENIYSYLAWYQQKPGKAPKLLIYFARTLAEGVPSRFSGSGSGTDFTLTISSLQPEDFATYYCQHHYGTPWTFGGGTKVEIKGGGGSGGGGSGGGGSGGGGSQVQLVQSGAEVKKPGASVKVSCKASGYTFTTYWMHWVRQAPGQGLEWMGVIDPSDSDTTYNQKFKGRVTMTRDTSTSTVYMELSSLRSEDTAVYYCTRSLDGYYDYWGQGTLVTVSSGGGGSGGGGSEVQLVESGGGLVQPGGSLRLSCAASGFTFSTYGMSWVRQAPGKGLVWVATINSNGGSTSYPDSVKGRFTISRDNAKNTLYLQMNSLRAEDTAVYYCARFFRFRNAMDYWGQGTLVTVSSASTKGPSVFPLAPSSKSTSGGTAALGCLVKDYFPEPVTVSWNSGALTSGVHTFPAVLQSSGLYSLSSVVTVPSSSLGTQTYICNVNHKPSNTKVDKKVEPKSCDKTHTCPPCPAPEAQGGPSVFLFPPKPKDTLYITREPEVTCVVVDVSHEDPEVKFNWYVDGVEVHNAKTKPREEQYNSTYRVVSVLTVLHQDWLNGKEYKCQVSNKALPAPIEKTISKAKGQPREPQVYTLPPSRDELTKNQVSLTCLVKGFYPSDIAVEWESNGQPENNYKTTPPVLDSDGSFFLYSKLTVDKSRWQQGNVFSCSVMHEALHNHYTQKSLSLSPG light: DIQMTQSPSSLSASVGDRVTITCRTSENIYSYLAWYQQKPGKAPKFLVYNAKTLAEGVPSRFSGSGSGTDFTLTISSLQPEDFATYYCQHYYGPPTWTFGQGTKVEIKRTVAAPSVFIFPPSDEQLKSGTASVVCLLNNFYPREAKVQWKVDNALQSGNSQESVTEQDSKDSTYSLSSTLTLSKADYEKHKVYACEVTHQGLSSPVTKSFNRGEC | 0.0742 |
| BSI-502-005 (bispecific antibody, human IgG1, kappa, hu1C5F12E9-V8 IgG with an anti-IL4R scFv (VH-VL) at the C-terminus of the heavy chain; AQQ and YTE already stand in the entry) heavy: QVQLVQSGAEVKKPGASVKVSCKASGYTFTTYWMHWVRQAPGQGLEWMGVIDPSDSDTTYNQKFKGRVTMTRDTSTSTVYMELSSLRSEDTAVYYCTRSLDGYYDYWGQGTLVTVSSASTKGPSVFPLAPSSKSTSGGTAALGCLVKDYFPEPVTVSWNSGALTSGVHTFPAVLQSSGLYSLSSVVTVPSSSLGTQTYICNVNHKPSNTKVDKKVEPKSCDKTHTCPPCPAPEAQGGPSVFLFPPKPKDTLYITREPEVTCVVVDVSHEDPEVKFNWYVDGVEVHNAKTKPREEQYNSTYRVVSVLTVLHQDWLNGKEYKCQVSNKALPAPIEKTISKAKGQPREPQVYTLPPSRDELTKNQVSLTCLVKGFYPSDIAVEWESNGQPENNYKTTPPVLDSDGSFFLYSKLTVDKSRWQQGNVFSCSVMHEALHNHYTQKSLSLSPGKGGGGSGGGGSEVQLVESGGGLVQPGGSLRLSCAASGFTFSTYGMSWVRQAPGKGLVWVATINSNGGSTSYPDSVKGRFTISRDNAKNTLYLQMNSLRAEDTAVYYCARFFRFRNAMDYWGQGTLVTVSSGGGGSGGGGSGGGGSGGGGSDIQMTQSPSSLSASVGDRVTITCRTSENIYSYLAWYQQKPGKAPKFLVYNAKTLAEGVPSRFSGSGSGTDFTLTISSLQPEDFATYYCQHYYGPPTWTFGQGTKVEIK light: DIQMTQSPSSLSASVGDRVTITCRPTENIYSYLAWYQQKPGKAPKLLIYFARTLAEGVPSRFSGSGSGTDFTLTISSLQPEDFATYYCQHHYGTPWTFGGGTKVEIKRTVAAPSVFIFPPSDEQLKSGTASVVCLLNNFYPREAKVQWKVDNALQSGNSQESVTEQDSKDSTYSLSSTLTLSKADYEKHKVYACEVTHQGLSSPVTKSFNRGEC | 0.106 |
